In the data set the test system is casein.

In the case of GST-WKS1_Kinase fusion protein, the in-gel kinase activity entry is given as “The WKS1 Ser/Thr kinase domain (pfam00069) was confirmed to have kinase activity (FIG. 17)”.

Source of the values: patent US20120047604.
